Source: the supplement of paper PMC11136658

Tested on: peptide library, one residue held at a place counted from the Y acceptor
Test: relative phosphorylation of the sub-library (ratio to the mean residue at this position); higher = residue favoured
Summary of the method: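 Within 384-well plates, purified recombinant kinases phosphorylated biotinylated Tyr-centred peptide library mixtures over 90 min using 50 μM ATP spiked with γ-32P-ATP; each mixture fixed one residue at one position from −5 to +5. Streptavidin membrane capture, rinsing, phosphorimaging and ImageQuant gave the intensities. These were normalized per position to the sum of the 18 randomized residues (16 for the Ser/Thr-free library) and multiplied by that number.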

Chain of IGF1R, construct: aa960-end, human (P08069 960-1367, looked up): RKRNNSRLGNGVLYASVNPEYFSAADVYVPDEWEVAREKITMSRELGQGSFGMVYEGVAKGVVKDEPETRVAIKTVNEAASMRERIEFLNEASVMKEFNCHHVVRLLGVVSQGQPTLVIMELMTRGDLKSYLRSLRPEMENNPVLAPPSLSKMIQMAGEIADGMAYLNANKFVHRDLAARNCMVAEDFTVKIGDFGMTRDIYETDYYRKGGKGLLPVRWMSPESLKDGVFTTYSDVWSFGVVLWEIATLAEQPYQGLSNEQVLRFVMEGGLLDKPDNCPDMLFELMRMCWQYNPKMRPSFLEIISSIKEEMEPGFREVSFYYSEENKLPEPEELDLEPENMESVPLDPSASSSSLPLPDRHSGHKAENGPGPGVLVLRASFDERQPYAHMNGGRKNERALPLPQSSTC
Chain of FYN, construct: Full length, human (P06241 whole entry, looked up): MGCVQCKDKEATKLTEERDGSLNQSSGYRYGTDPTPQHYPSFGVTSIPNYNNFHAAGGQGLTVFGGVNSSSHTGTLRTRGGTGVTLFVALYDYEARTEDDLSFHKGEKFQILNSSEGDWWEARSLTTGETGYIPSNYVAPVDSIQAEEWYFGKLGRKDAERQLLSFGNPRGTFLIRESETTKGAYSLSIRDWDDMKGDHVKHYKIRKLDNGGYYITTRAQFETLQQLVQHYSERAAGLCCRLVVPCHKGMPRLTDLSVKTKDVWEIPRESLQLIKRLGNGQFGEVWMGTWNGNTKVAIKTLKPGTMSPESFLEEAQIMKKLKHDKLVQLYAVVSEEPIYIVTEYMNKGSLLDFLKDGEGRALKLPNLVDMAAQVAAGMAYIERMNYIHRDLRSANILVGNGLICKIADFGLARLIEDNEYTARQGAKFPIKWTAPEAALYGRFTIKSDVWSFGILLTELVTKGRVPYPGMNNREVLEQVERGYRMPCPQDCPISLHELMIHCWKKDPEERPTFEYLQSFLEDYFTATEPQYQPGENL

FYN, construct: Full length, human (from UniProt P06241)
relative phosphorylation
Conditions	at +1	at +2	at +3	at +4	at +5	at -1	at -2	at -3	at -4	at -5
A fixed	1.68	1.07	0.544	0.857	0.903	0.622	1.04	0.787	1.08	1.02
D fixed	0.925	0.762	0.546	1.02	0.987	0.867	1.77	2.4	1.64	1.5
E fixed	1.79	1.76	0.601	1	0.951	1.08	1.95	2.8	1.89	1.35
F fixed	0.656	1.08	3.35	1.23	1.16	0.885	0.483	0.803	0.997	0.993
G fixed	3.49	0.728	0.941	1.03	1.03	0.467	1.38	0.91	1.17	1.14
H fixed	0.53	0.515	0.732	0.901	1.01	0.419	0.77	0.814	0.726	0.924
I fixed	0.861	1.06	1.72	0.735	0.718	3.38	0.717	0.641	0.796	0.833
K fixed	0.231	0.61	0.397	1.12	1.04	0.221	0.515	0.469	0.622	0.901
L fixed	0.635	1.02	1.39	0.912	0.92	1.76	0.716	0.672	0.906	0.933
M fixed	0.992	1.05	0.894	1.04	0.858	0.806	0.667	0.729	0.784	0.904
N fixed	0.504	0.806	0.455	0.81	1.03	0.33	1.34	1.26	0.903	0.97
P fixed	0.291	0.734	0.571	0.945	1.48	1.2	1.43	0.969	1.32	1.17
Q fixed	0.906	0.951	0.539	1.14	0.81	0.521	1.2	0.965	1.08	0.978
R fixed	0.311	0.79	0.728	1.14	1.22	0.227	0.612	0.56	0.744	0.886
S fixed	1.01	1.32	0.628	0.977	1.03	0.44	1.23	0.945	0.813	0.865
T fixed	0.895	1.39	0.92	0.861	0.996	1.33	0.774	0.79	0.733	0.779
V fixed	0.935	1.28	1.4	0.882	0.722	2.95	0.793	0.649	0.821	0.84
W fixed	1.36	1.08	1.64	1.38	1.14	0.497	0.606	0.838	0.973	1
pThr fixed	1.64	2.15	0.627	0.773	0.686	4.17	1.92	1.58	1.42	1.31
pTyr fixed	3.45	1.96	0.89	1.23	1.11	1.34	1.37	1.71	1.52	1.32

IGF1R, construct: aa960-end, human (from UniProt P08069)
relative phosphorylation
Conditions	at +1	at +2	at +3	at +4	at +5	at -1	at -2	at -3	at -4	at -5
A fixed	1.7	0.629	0.386	0.818	0.794	1.07	1.11	0.892	1.01	0.847
D fixed	0.473	0.626	0.286	1.12	0.708	3.28	1.46	1.52	1.41	1.33
E fixed	0.838	1.42	0.255	1.68	0.671	1.61	1.71	1.77	1.86	1.05
F fixed	1.68	1.48	2	1.45	2.54	0.717	0.697	1.1	1.05	1.01
G fixed	0.585	0.273	0.367	0.844	0.83	0.547	1.18	0.991	1.03	1.06
H fixed	1.42	0.838	1.57	1.19	1.03	0.864	0.937	1.05	0.915	0.963
I fixed	1.28	1.15	1.94	0.843	0.91	1.2	0.736	0.654	0.819	0.997
K fixed	0.216	0.408	0.307	0.679	0.648	0.21	0.8	0.711	0.863	0.983
L fixed	1.08	1.59	1.35	0.694	1.02	0.964	0.839	0.798	0.886	0.916
M fixed	2.42	1.67	1.43	1.01	0.951	0.744	0.651	0.853	0.875	0.954
N fixed	0.319	0.74	0.288	0.787	0.764	1.83	1.34	1.4	0.971	1.12
P fixed	0.311	0.589	0.291	0.796	1.62	1.11	1.1	0.914	0.98	1.06
Q fixed	0.646	0.733	0.353	1.12	0.674	0.663	1.16	0.922	1.14	1.09
R fixed	0.178	0.588	0.433	0.799	0.914	0.239	0.893	0.899	0.977	1.12
S fixed	0.879	0.659	0.423	0.883	0.841	0.75	1.16	1.01	0.82	0.858
T fixed	0.755	0.661	0.525	0.86	0.704	0.778	0.86	0.973	0.645	0.864
V fixed	1.51	1.13	1.21	0.873	0.695	0.966	0.739	0.652	0.787	0.788
W fixed	1.71	2.83	4.6	1.55	1.68	0.451	0.63	0.901	0.967	0.983
pThr fixed	1.78	0.865	0.247	0.783	0.704	2.1	1.17	1.37	1.18	1.1
pTyr fixed	1.8	2.89	0.461	1.93	0.573	6.45	2.12	1.56	1.65	1.48
